Values quoted from earlier work in PMC3091359.

Target: (Pro)renin (Homo sapiens) (UniProt P00797)
Chain of UniProt P00797 (P00797 67-406): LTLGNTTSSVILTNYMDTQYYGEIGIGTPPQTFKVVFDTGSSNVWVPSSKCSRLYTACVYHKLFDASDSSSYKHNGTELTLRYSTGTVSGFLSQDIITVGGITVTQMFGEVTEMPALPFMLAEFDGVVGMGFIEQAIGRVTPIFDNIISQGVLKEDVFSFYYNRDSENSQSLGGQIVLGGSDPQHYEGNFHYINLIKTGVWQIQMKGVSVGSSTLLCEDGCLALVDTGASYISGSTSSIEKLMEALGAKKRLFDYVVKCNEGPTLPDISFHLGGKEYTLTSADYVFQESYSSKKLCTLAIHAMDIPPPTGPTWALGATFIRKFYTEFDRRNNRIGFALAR

Kd: 3.7 nM
Substance: (Pro)renin receptor (from UniProt Q6AXS4)
